The values below come from patent US20250346668A1 (GENOR BIOPHARMA, published 2025).

The chains are these.
B1: hAb001-17 (antibody, V domains shown)
VH: QVQLVQSGAEVKKPGASVKVSCKASGYSFTNYYMHWVRQAPGQRLEWMGWTYPGNNNIKYNEKFKGRVTITRDTSASTAYMELSSLRSEDTAVYYCARDGYGYYFFDYWGQGTLVTVSS
VL: DIVMTQSPDSLAVSLGERATINCKSSQSLLNNRTRKNYLAWYQQKPGQPPKLLIYWASTRESGVPDRFSGSGSGTDFTLTISSLQAEDVAVYYCKQSYTLRTFGGGTKLEIK
notes: Humanized; constant regions not specified
B2: hAb007-21 (antibody, V domains shown)
VH: QVQLVQSGAEVKKPGASVKVSCKASGSTFTDNYIHWVRQAPGQRLEWIGWIYPGSVNIKYNEKFKDRVTITADTSASTAYMELSSLRSEDTAVYYCARDISRYYFDYWGQGTTVTVSS
VL: B1 VL with N32S, Y98F, T99I
notes: as for B1
B3: hAb001-25 (antibody, V domains shown)
VH: B1 VH with M48I, V68A, R72A
VL: B1 VL
notes: as for B1
B4: hAb001-18 (antibody, V domains shown)
VH: B1 VH
VL: B1 VL with S69T
notes: as for B1
B5: hAb001-29 (antibody, V domains shown)
VH: B1 VH with R38K, M48I, V68A, R72A
VL: B1 VL
notes: as for B1
B6: hAb001-19 (antibody, V domains shown)
VH: B1 VH
VL: B1 VL with I21M, N22S
notes: as for B1
B7: hAb007-17 (antibody, V domains shown)
VH: B2 VH with I48M, A72R
VL: B1 VL with N32S, Y98F, T99I
notes: as for B1
B8: hAb001-31 (antibody, V domains shown)
VH: B1 VH with R38K, M48I, V68A, R72A
VL: B1 VL with I21M, N22S
notes: as for B1
B9: hAb001-32 (antibody, V domains shown)
VH: B1 VH with R38K, M48I, V68A, R72A
VL: B1 VL with I21M, N22S, S69T
notes: as for B1
B10: hAb001-20 (antibody, V domains shown)
VH: B1 VH
VL: B1 VL with I21M, N22S, S69T
notes: as for B1
B11: hAb007-20 (antibody, V domains shown)
VH: B2 VH with I48M, A72R
VL: B1 VL with I21M, N32S, S69T, Y98F, T99I
notes: as for B1
B12: hAb007-19 (antibody, V domains shown)
VH: B2 VH with I48M, A72R
VL: B1 VL with I21M, N32S, Y98F, T99I
notes: as for B1
B13: hAb001-30 (antibody, V domains shown)
VH: B1 VH with R38K, M48I, V68A, R72A
VL: B1 VL with S69T
notes: as for B1
B14: hAb007-18 (antibody, V domains shown)
VH: B2 VH with I48M, A72R
VL: B1 VL with N32S, S69T, Y98F, T99I
notes: as for B1
B15: hAb001-24 (antibody, V domains shown)
VH: B1 VH with M48I, R72A
VL: B1 VL with I21M, N22S, S69T
notes: as for B1
B16: hAb008-21 (antibody, V domains shown)
VH: QVQLVQSGAEVKKPGASVKVSCKASGYTFTDYTVNWVRQAPGQRLEWIGYINPFNSYTKYNQKFKDRVTITADTSASTAYMELSSLRSEDTAVYYCANSVSTYWGQGTTVTVSS
VL: DVVMTQSPLSLPVTLGQPASISCKSSQSLLDSDGKTYLNWFQQRPGQSPRRLIQLVSKLNSGVPDRFSGSGSGTDFTLKISRVEAEDVGVFYCWQGTHFPRTFGGGTKLEIK
notes: as for B1
B17: hAb008-22 (antibody, V domains shown)
VH: B16 VH
VL: B16 VL with F41L
notes: as for B1
B18: hAb008-31 (antibody, V domains shown)
VH: B16 VH with R38K, V68A, Y95F
VL: B16 VL with F41L, Q42L
notes: as for B1
B19: hAb008-30 (antibody, V domains shown)
VH: B16 VH with R38K, V68A, Y95F
VL: B16 VL with F41L
notes: as for B1
B20: hAb008-28 (antibody, V domains shown)
VH: B16 VH with R38K, V68A, Y95F
VL: B16 VL with Q54Y, F91Y
notes: as for B1
B21: hAb008-19 (antibody, V domains shown)
VH: B16 VH with I48M, A72R, N98R
VL: B16 VL with F41L, Q42L
notes: as for B1
B22: hAb008-25 (antibody, V domains shown)
VH: B16 VH with V68A, Y95F
VL: B16 VL
notes: as for B1
B23: hAb008-27 (antibody, V domains shown)
VH: B16 VH with V68A, Y95F
VL: B16 VL with F41L, Q42L
notes: as for B1
B24: hAb008-17 (antibody, V domains shown)
VH: B16 VH with I48M, A72R, N98R
VL: B16 VL
notes: as for B1
B25: hAb008-24 (antibody, V domains shown)
VH: B16 VH with V68A, Y95F
VL: B16 VL with Q54Y, F91Y
notes: as for B1
B26: hAb008-20 (antibody, V domains shown)
VH: B16 VH
VL: B16 VL with Q54Y, F91Y
notes: as for B1
B27: hAb008-23 (antibody, V domains shown)
VH: B16 VH
VL: B16 VL with F41L, Q42L
notes: as for B1
B28: hAb008-18 (antibody, V domains shown)
VH: B16 VH with I48M, A72R, N98R
VL: B16 VL with F41L
notes: as for B1
B29: hAb008-29 (antibody, V domains shown)
VH: B16 VH with R38K, V68A, Y95F
VL: B16 VL
notes: as for B1
B30: hAb008-16 (antibody, V domains shown)
VH: B16 VH with I48M, A72R, N98R
VL: B16 VL with Q54Y, F91Y
notes: as for B1

Where a chain is given by its changes, count along the chain named.

The assay deals with T1, human CD3e/g antigen (ACRO, catalog number CDG-H52W5) (human, UniProt P07766 23-126; P09693 23-116).
T1 construct: Bought reagent used as the Biacore analyte; also called hCD3e/g
The assay can be described thus: SPR (Biacore 8K), antibody captured via anti-human Fc. The protocol: The equilibrium dissociation constant of binding of CD3 antibodies to human CD3e/g antigen (purchased from ACRO, catalog number CDG-H52W5) was determined by kinetic binding method using Biacore 8K (GE) system. Through the capture method, the carboxylated dextran surface of CM5 chip was first activated with NHS (N-hydroxysuccinimide) and EDC (1-(3-dimethylaminopropyl)-3-ethylcarbodiimide hydrochloride), and then added with an anti-human IgG (Fc) antibody, the free amino group of which could form an amide bond with the activated carboxyl group, thereby being fixed on the chip surface. The anti-human IgG (Fc) antibody could bind to the Fc end of CD3 antibodies to capture the antibodies, and then a series of concentrations of antigen were added to obtain the binding and dissociation curves of antibody and antigen, and the corresponding kinetic constants were calculated by Biacore Evaluation software, as shown in the table below.
For B1, the Kd is 0.0157 µM, the koff amounted to 0.00452 s⁻¹ and the on-rate constant (kon) stood at 288000 M⁻¹ s⁻¹.
On the same counts, the results for B2 are 0.00806 µM, 0.00377 s⁻¹ and 468000 M⁻¹ s⁻¹.
For B3, the affinity, expressed as Kd, was 0.0226 µM; the dissociation rate constant (koff) came to 0.00896 s⁻¹; the on-rate constant (kon) amounted to 397000 M⁻¹ s⁻¹.
On the same counts, the results for B4 are 0.0352 µM, 0.0121 s⁻¹ and 343000 M⁻¹ s⁻¹.
On the same counts, the results for B5 are 0.0228 µM, 0.00722 s⁻¹ and 316000 M⁻¹ s⁻¹.
Molecule B6 registered a Kd of 0.0945 µM, a koff of 0.0354 s⁻¹ and an on-rate constant (kon) of 375000 M⁻¹ s⁻¹.
Taken in the same sequence, the figures for B7 were 0.00585 µM, 0.00225 s⁻¹ and 385000 M⁻¹ s⁻¹.
Taken in the same sequence, the figures for B8 were 0.0197 µM, 0.00624 s⁻¹ and 317000 M⁻¹ s⁻¹.
Taken in the same sequence, the figures for B9 were 0.0168 µM, 0.00497 s⁻¹ and 296000 M⁻¹ s⁻¹.
B10 yielded a Kd of 0.0108 µM, an off-rate constant (koff) of 0.00303 s⁻¹ and a kon of 281000 M⁻¹ s⁻¹.
Taken in the same sequence, the figures for B11 were 0.0111 µM, 0.00375 s⁻¹ and 337000 M⁻¹ s⁻¹.
The molecule B12 had a Kd of 0.00932 µM, a koff of 0.00317 s⁻¹ and a kon of 340000 M⁻¹ s⁻¹.
Taken in the same sequence, the figures for B13 were 0.0258 µM, 0.00835 s⁻¹ and 324000 M⁻¹ s⁻¹.
On the same counts, the results for B14 are 0.00601 µM, 0.00241 s⁻¹ and 401000 M⁻¹ s⁻¹.
Molecule B15 gave a Kd of 0.0166 µM, a koff of 0.00655 s⁻¹ and a kon of 394000 M⁻¹ s⁻¹.
Taken in the same sequence, the figures for B16 were 0.0186 µM, 0.00382 s⁻¹ and 205000 M⁻¹ s⁻¹.
Taken in the same sequence, the figures for B17 were 0.0206 µM, 0.00588 s⁻¹ and 285000 M⁻¹ s⁻¹.
Taken in the same sequence, the figures for B18 were 0.0151 µM, 0.00381 s⁻¹ and 252000 M⁻¹ s⁻¹.
B19 displayed a Kd of 0.0204 µM, a koff of 0.00522 s⁻¹ and a kon of 256000 M⁻¹ s⁻¹.
Taken in the same sequence, the figures for B20 were 0.0272 µM, 0.00441 s⁻¹ and 162000 M⁻¹ s⁻¹.
Taken in the same sequence, the figures for B21 were 0.0261 µM, 0.00573 s⁻¹ and 219000 M⁻¹ s⁻¹.
Taken in the same sequence, the figures for B22 were 0.0368 µM, 0.00741 s⁻¹ and 202000 M⁻¹ s⁻¹.
With B23, the Kd was 0.018 µM, the koff came out at 0.00475 s⁻¹ and the on-rate (kon) was determined as 264000 M⁻¹ s⁻¹.
Taken in the same sequence, the figures for B24 were 0.00757 µM, 0.00126 s⁻¹ and 167000 M⁻¹ s⁻¹.
The molecule B25 gave an equilibrium dissociation constant (Kd) of 0.0215 µM, a koff of 0.00269 s⁻¹ and a kon of 125000 M⁻¹ s⁻¹.
Consider B26, for which the Kd was 0.0145 µM, the off-rate constant (koff) stood at 0.00152 s⁻¹ and the kon amounted to 105000 M⁻¹ s⁻¹.
On the same counts, the results for B27 are 0.0174 µM, 0.00487 s⁻¹ and 280000 M⁻¹ s⁻¹.
Taken in the same sequence, the figures for B28 were 0.0339 µM, 0.00691 s⁻¹ and 204000 M⁻¹ s⁻¹.
On the same counts, the results for B29 are 0.0208 µM, 0.00378 s⁻¹ and 182000 M⁻¹ s⁻¹.
B30 had a dissociation constant Kd of 0.0186 µM, a koff of 0.00189 s⁻¹ and an association rate constant (kon) of 101000 M⁻¹ s⁻¹.
